Assay results reported in PMC10477855.

Target: UBR5 (UniProt O95071)
Assay: co-IP and immunoblot, transfected cells
Conditions: reference: ACSL4 wild type; sites S447

## ACSL4 (from UniProt O60488) ACSL4 S447A
  binding against the reference: lost
